Measured values reported in patent US20240417446A1.

Assays:
[1] = biological target: SARS-CoV-2 Beta variant spike protein on pseudovirus (SARS-CoV-2), P0DTC2; test: cell-based or functional assay
[2] = biological target: SARS-CoV-2 Delta variant spike protein on pseudovirus (SARS-CoV-2), P0DTC2; test: cell-based or functional assay

B1: NCI-CoV-S2A9 (VNAR)
chain: ARVDQTPRSVTKETGESLTINCVLRDASYALGRTCWYRKKSGSTNEESISKGGRYVETVNSGSKSFSLRINDLTVEDGGTYRCGVSTPWSCDYGPLCFYAACGDGTVVTVN
IC50 for neutralizing pseudovirus [1]: 2220 nM
IC50 for neutralizing pseudovirus [2]: 1880 nM
